From the supplement of paper PMC9112550, “Optimization of the antimicrobial peptide Bac7 by deep mutational scanning” (BMC Biology, 2022) come the findings set out here.

The subject of the data set is Escherichia coli TOP10. The data set can be described thus: shrunken log2 fold change of peptide-encoding DNA abundance (4.5 h post-induction vs induction); higher = less antimicrobial activity (less host growth inhibition). The conditions noted are these: time post-induction: 4.5 h; library: site-saturation at positions 5, 18, 19, 20.
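Also: peptides expressed intracellularly from a pBAD plasmid library in pooled LB shake-flask culture, induced with 0.3% L-arabinose, DNA abundance read by NGS, three biological replicates, DESeq2 with apeglm shrinkage.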

For the sequence RRIRPRPPRLPRPRPRPDELPRP, the “shrunken log2 fold change” value was -0.0607. On to RRIRERPPRLPRPRPRPKEVPRP, for which the “shrunken log2 fold change” value was -0.324. Consider RRIRGRPPRLPRPRPRPPRSPRP, for which the “shrunken log2 fold change” value was 1.19.

As for RRIRSRPPRLPRPRPRPANKPRP, the “shrunken log2 fold change” value was -0.283.

For the sequence RRIRYRPPRLPRPRPRPSMSPRP, the “shrunken log2 fold change” value is -1.19. Take RRIRIRPPRLPRPRPRPKHRPRP: the “shrunken log2 fold change” value was -0.103.

On to RRIRPRPPRLPRPRPRPNCRPRP, for which the “shrunken log2 fold change” value is -0.000174. The value for RRIRVRPPRLPRPRPRPNYMPRP was -0.923; that for RRIRKRPPRLPRPRPRPFYGPRP was -0.0306; that for RRIRCRPPRLPRPRPRPHHYPRP was -0.685. Consider RRIRNRPPRLPRPRPRPGVSPRP, for which the “shrunken log2 fold change” value was -0.279.

As for RRIRLRPPRLPRPRPRPVRKPRP, the “shrunken log2 fold change” value was -0.0647. With RRIRQRPPRLPRPRPRPYYPPRP, the “shrunken log2 fold change” value was 0.0338. The value for RRIRDRPPRLPRPRPRPIVFPRP was -0.0706; that for RRIRDRPPRLPRPRPRPMSHPRP was -0.046.

Regarding RRIRTRPPRLPRPRPRPYEQPRP, the “shrunken log2 fold change” value was -0.0291. Regarding RRIRERPPRLPRPRPRPTDEPRP, the “shrunken log2 fold change” value was -0.0552. For the sequence RRIRDRPPRLPRPRPRPWFIPRP, the “shrunken log2 fold change” value was -0.157. For RRIRCRPPRLPRPRPRPTRVPRP, the “shrunken log2 fold change” value was determined as 0.547.

Turning to RRIRMRPPRLPRPRPRPCMRPRP, the “shrunken log2 fold change” value came out at 0.889. As to RRIRKRPPRLPRPRPRPETRPRP, the “shrunken log2 fold change” value came to 0.269.

With RRIRFRPPRLPRPRPRPKYHPRP, the “shrunken log2 fold change” value was -0.428.

Consider RRIRVRPPRLPRPRPRPIIEPRP, for which the “shrunken log2 fold change” value is -0.087. Consider RRIRARPPRLPRPRPRPSWEPRP, for which the “shrunken log2 fold change” value amounted to 0.162.

RRIRIRPPRLPRPRPRPQHPPRP: the “shrunken log2 fold change” value was -0.176. Take RRIRVRPPRLPRPRPRPIAAPRP: the “shrunken log2 fold change” value stood at 0.454. With RRIRIRPPRLPRPRPRPVLLPRP, the “shrunken log2 fold change” value was -0.03. With RRIRNRPPRLPRPRPRPFEMPRP, the “shrunken log2 fold change” value was found to be 0.0463. In the case of RRIRYRPPRLPRPRPRPHLSPRP, the “shrunken log2 fold change” value is -0.235. In the case of RRIRERPPRLPRPRPRPPKWPRP, the “shrunken log2 fold change” value is -0.176. Turning to RRIRMRPPRLPRPRPRPMHTPRP, the “shrunken log2 fold change” value worked out at 3.3. Take RRIRHRPPRLPRPRPRPNSDPRP: the “shrunken log2 fold change” value was -0.0908.

In the case of RRIRNRPPRLPRPRPRPDAHPRP, the “shrunken log2 fold change” value was 0.0677. With RRIRYRPPRLPRPRPRPSCVPRP, the “shrunken log2 fold change” value was -0.497. As for RRIRSRPPRLPRPRPRPCHRPRP, the “shrunken log2 fold change” value is -0.0558. RRIRARPPRLPRPRPRPINIPRP: the “shrunken log2 fold change” value was -0.334. On to RRIRDRPPRLPRPRPRPLGKPRP, for which the “shrunken log2 fold change” value was found to be 0.188. For RRIRDRPPRLPRPRPRPRHEPRP, the “shrunken log2 fold change” value is -0.000978. To RRIRIRPPRLPRPRPRPAKKPRP belongs 0.0493. In the case of RRIRDRPPRLPRPRPRPGWYPRP, the “shrunken log2 fold change” value was found to be 0.178. Regarding RRIRFRPPRLPRPRPRPMNTPRP, the “shrunken log2 fold change” value is 0.0693. For the sequence RRIRDRPPRLPRPRPRPWRGPRP, the “shrunken log2 fold change” value was found to be 0.196. As to RRIRQRPPRLPRPRPRPRDVPRP, the “shrunken log2 fold change” value was -0.0705. Take RRIRDRPPRLPRPRPRPVWSPRP: the “shrunken log2 fold change” value amounted to 0.065. RRIRIRPPRLPRPRPRPNDIPRP: the “shrunken log2 fold change” value is -1.11. Turning to RRIRSRPPRLPRPRPRPSYWPRP, the “shrunken log2 fold change” value was 2.29. Take RRIRQRPPRLPRPRPRPHHHPRP: the “shrunken log2 fold change” value is -0.403. In the case of RRIRIRPPRLPRPRPRPHPYPRP, the “shrunken log2 fold change” value was -0.0313.

For the sequence RRIRNRPPRLPRPRPRPSINPRP, the “shrunken log2 fold change” value was -0.537.

Consider RRIRLRPPRLPRPRPRPLRKPRP, for which the “shrunken log2 fold change” value stood at 0.183. Take RRIRDRPPRLPRPRPRPHFQPRP: the “shrunken log2 fold change” value was -0.236. The value for RRIRARPPRLPRPRPRPDPKPRP was 0.268; that for RRIRTRPPRLPRPRPRPRSRPRP was 0.143; that for RRIRDRPPRLPRPRPRPVTHPRP was -0.0987. Take RRIRSRPPRLPRPRPRPAYQPRP: the “shrunken log2 fold change” value is -0.151. The value for RRIRLRPPRLPRPRPRPKYNPRP was -0.703; that for RRIRTRPPRLPRPRPRPNWEPRP was 0.00854. For RRIRERPPRLPRPRPRPFLVPRP, the “shrunken log2 fold change” value was -0.119. With RRIRTRPPRLPRPRPRPKPYPRP, the “shrunken log2 fold change” value was -0.607. Regarding RRIRFRPPRLPRPRPRPRPCPRP, the “shrunken log2 fold change” value came to 0.386. In the case of RRIRDRPPRLPRPRPRPYAQPRP, the “shrunken log2 fold change” value was -0.156.

Consider RRIRKRPPRLPRPRPRPSRVPRP, for which the “shrunken log2 fold change” value turned out to be 0.24. As to RRIRNRPPRLPRPRPRPLHRPRP, the “shrunken log2 fold change” value is -0.249. RRIRFRPPRLPRPRPRPHSFPRP: the “shrunken log2 fold change” value came to 0.00365. For the sequence RRIRSRPPRLPRPRPRPGQDPRP, the “shrunken log2 fold change” value was -0.329. Consider RRIRKRPPRLPRPRPRPNRAPRP, for which the “shrunken log2 fold change” value is -0.0335.

Turning to RRIRKRPPRLPRPRPRPMFNPRP, the “shrunken log2 fold change” value is -0.0523. Regarding RRIRNRPPRLPRPRPRPWRPPRP, the “shrunken log2 fold change” value was determined as 0.337. Turning to RRIRSRPPRLPRPRPRPNNLPRP, the “shrunken log2 fold change” value is -1.04. As to RRIRPRPPRLPRPRPRPMVVPRP, the “shrunken log2 fold change” value is -0.153. With RRIRVRPPRLPRPRPRPKAEPRP, the “shrunken log2 fold change” value is -0.00229.

Turning to RRIRTRPPRLPRPRPRPDGEPRP, the “shrunken log2 fold change” value worked out at 0.0799. To RRIRSRPPRLPRPRPRPMYSPRP belongs -1.24; to RRIRQRPPRLPRPRPRPDECPRP, 0.0568. For the sequence RRIRHRPPRLPRPRPRPHITPRP, the “shrunken log2 fold change” value is -0.857. For the sequence RRIRKRPPRLPRPRPRPCPCPRP, the “shrunken log2 fold change” value is 0.00911.

Turning to RRIRQRPPRLPRPRPRPFDMPRP, the “shrunken log2 fold change” value was -0.123. In the case of RRIRIRPPRLPRPRPRPEQQPRP, the “shrunken log2 fold change” value is -0.132. With RRIRDRPPRLPRPRPRPRICPRP, the “shrunken log2 fold change” value is 0.00396.

For RRIRNRPPRLPRPRPRPQNMPRP, the “shrunken log2 fold change” value was -0.233. Turning to RRIRKRPPRLPRPRPRPFRHPRP, the “shrunken log2 fold change” value was -0.0849. With RRIRKRPPRLPRPRPRPSDRPRP, the “shrunken log2 fold change” value was determined as 0.0691. In the case of RRIRCRPPRLPRPRPRPCTSPRP, the “shrunken log2 fold change” value was -0.647. The value for RRIRGRPPRLPRPRPRPPKWPRP was 0.469; that for RRIRTRPPRLPRPRPRPNTVPRP was -0.305; that for RRIRARPPRLPRPRPRPEGYPRP was 0.582. Consider RRIRLRPPRLPRPRPRPYVQPRP, for which the “shrunken log2 fold change” value was -0.144. As for RRIRHRPPRLPRPRPRPIKAPRP, the “shrunken log2 fold change” value is -0.157. Turning to RRIRPRPPRLPRPRPRPAHKPRP, the “shrunken log2 fold change” value is -0.46. To RRIRMRPPRLPRPRPRPWFNPRP belongs -0.243. Take RRIRMRPPRLPRPRPRPQKKPRP: the “shrunken log2 fold change” value is -0.0151.

Consider RRIRPRPPRLPRPRPRPAPFPRP, for which the “shrunken log2 fold change” value came to 0.143.

With RRIRMRPPRLPRPRPRPLVQPRP, the “shrunken log2 fold change” value amounted to 0.199. On to RRIRNRPPRLPRPRPRPEFEPRP, for which the “shrunken log2 fold change” value came out at 0.114. Take RRIRNRPPRLPRPRPRPMCIPRP: the “shrunken log2 fold change” value is -0.0106.

Regarding RRIRIRPPRLPRPRPRPFHQPRP, the “shrunken log2 fold change” value was -0.961. Turning to RRIRTRPPRLPRPRPRPRMEPRP, the “shrunken log2 fold change” value is -0.0325.

On to RRIRWRPPRLPRPRPRPKVPPRP, for which the “shrunken log2 fold change” value is -0.0143. Take RRIRARPPRLPRPRPRPEADPRP: the “shrunken log2 fold change” value turned out to be 1.53.

On to RRIRERPPRLPRPRPRPALQPRP, for which the “shrunken log2 fold change” value was 0.22.

Regarding RRIRDRPPRLPRPRPRPPADPRP, the “shrunken log2 fold change” value is 0.594. With RRIRLRPPRLPRPRPRPSNSPRP, the “shrunken log2 fold change” value is -0.564. To RRIRKRPPRLPRPRPRPSPDPRP belongs 0.344; to RRIRSRPPRLPRPRPRPTFRPRP, -0.0691. As to RRIRQRPPRLPRPRPRPYDGPRP, the “shrunken log2 fold change” value was -0.101. The value for RRIRGRPPRLPRPRPRPCDNPRP was 0.0785; that for RRIRCRPPRLPRPRPRPHREPRP was -0.0514. RRIRARPPRLPRPRPRPPAYPRP: the “shrunken log2 fold change” value came to 0.3. As for RRIRKRPPRLPRPRPRPPVMPRP, the “shrunken log2 fold change” value was 0.337. To RRIRSRPPRLPRPRPRPDANPRP belongs 0.183; to RRIRVRPPRLPRPRPRPEGWPRP, 0.762. On to RRIRDRPPRLPRPRPRPGGSPRP, for which the “shrunken log2 fold change” value was 0.25. RRIRHRPPRLPRPRPRPLFEPRP: the “shrunken log2 fold change” value was -0.135. Consider RRIRIRPPRLPRPRPRPNTYPRP, for which the “shrunken log2 fold change” value was -1.02. The value for RRIRLRPPRLPRPRPRPFTGPRP was -0.204; that for RRIRGRPPRLPRPRPRPADHPRP was 0.625; that for RRIRTRPPRLPRPRPRPPLLPRP was 0.172. As for RRIRVRPPRLPRPRPRPEHVPRP, the “shrunken log2 fold change” value was found to be 0.0447. Regarding RRIRPRPPRLPRPRPRPFRFPRP, the “shrunken log2 fold change” value stood at 0.0991. For the sequence RRIRHRPPRLPRPRPRPHSNPRP, the “shrunken log2 fold change” value is -0.167. On to RRIRMRPPRLPRPRPRPYFAPRP, for which the “shrunken log2 fold change” value is -0.296. Consider RRIRQRPPRLPRPRPRPQLNPRP, for which the “shrunken log2 fold change” value was -0.367. Turning to RRIRCRPPRLPRPRPRPRKMPRP, the “shrunken log2 fold change” value is -0.00382. With RRIRMRPPRLPRPRPRPTYVPRP, the “shrunken log2 fold change” value was -0.197. To RRIRIRPPRLPRPRPRPGAVPRP belongs 0.28.
